Experimental data: patent US10272135B2, “Apolipoprotein O and fragments thereof for inducing apoptosis in a cancerous cell” (INSERM (INSTITUT NATIONAL DE LA SANTÉ ET DE LA RECHERCHE …, priority 2014, dated 2019)

Legend:
[1] = system: mouse liver; experiment: Hydrodynamics-based in vivo transfection of the mouse liver
Source text: After ethical committee approval, all patients in this study gave written consent for sample collection and molecular analysis prior to inclusion. Patients were carefully selected by physicians from the Department of Cardiology, Toulouse University Hospital, prior to coronary by-pass surgery. Bioinformatics. Microarray expression data from human heart samples were downloaded from the GEO repository (GSE1145). This series consisted of 107 myocardial samples collected from patients undergoing cardiac transplantation whose failure arises from different etiologies (e.g. idiopathic dilated cardiomyopathy, ischemic cardiomyopathy, valvular cardiomyopathy, and hypertrophic cardiomyopathy) and from “normal” organ donors whose hearts cannot be used for transplants. Arrays were intensity normalized and hierarchical clustering (average group linkage, Pearson correlation, threshold r=0.8) was applied to identify groups of co-expressed genes. ApoO expression levels were plotted for the 107 human hearts tested and used to define relevant molecular pathways using both Toppgene and Ingenuity Pathway Analysis (Ingenuity systems, Redwood City, Calif., USA). ApoO subcellular localization was predicted using Mitopred, mitoprot and YLoc. Animals: All animal Studies followed the INSERM Institute Animal Facility guidelines and were approved by the animal care committees of the INSERM I2MC UMR 1048. All animal procedures were performed according to the guidelines of the French Ministry of Agriculture. Animals were housed at the Toulouse I2MC animal facility in a room lit 12 h per day (6 AM-6 PM) at an ambient temperature of 22+/−1° C. Construction of ApoO Expression Vectors To overexpress human ApoO (pTT-ApoO), the ApoO coding sequence was amplified using primers hApoO5BamPTT (SEQ ID NO: 2) and hApoO3BamPTT (SEQ ID NO: 3) and cloned into the BamH1 site of pTT expression vector. pSNAP-ApoO was generated by PCR amplification of pTT-ApoO using primers SnapApoEcorV-F (SEQ ID NO: 4) and SnapApoEcorV-R (SEQ ID NO: 5) and cloned into the EcoRV site of pSNAP-Tag® (Ozyme, Saint-Quentin-en-Yvelines, France). pGEX2T-ApoO was constructed by PCR amplification of pTT-ApoO using hApoOpGEX1FBam (SEQ ID NO: 6) and hApoOpGEX1RSma (SEQ ID NO: 7) and cloned into the Bam HI/Sma I site of pGEX2T (Promega, Charbonnières-les-Bains). All primers used in this work were synthesized by Eurogentec France (Angers). All restriction enzymes used were from New England Biolabs (Ozyme, Saint-Quentin-en-Yvelines). All ApoO sequences within the expression vectors were verified by DNA double strand sequencing using ABI PRISM®BigDye™ Terminator version 3.1 Ready reaction cycle sequencing kit (Life Technologies SAS, Villebon sur Yvette) and loaded on an ABI 3130XL DNA sequencing instrument (Life Technologies SAS, Villebon sur Yvette). Cell Culture and Tranfection of H9C2 Cardic Myoblasts H9c2 were obtained from the European Collection of Cell Cultures (Salisbury, England). H9c2 cells were cultured in Dulbecco's modified Eagle medium (Life Technologies SAS, Villebon sur Yvette) adjusted to contain 1.5 g/liter sodium bicarbonate and supplemented with antibiotic-antimycotic solution (Life Technologies SAS, Villebon sur Yvette) and 10% fetal bovine serum (FBS, AbCys s.a., Paris). Cells were plated on 10-cm diameter tissue culture dish and grown in a 5% CO2 incubator at 37° C. with saturating humidity with medium changes every 2 days. […]

[2] = system: cytochrome C oxidase; experiment: Cytochrome C oxidase activity in cardiac myoblasts; assay type: cell-based; details: ApoO cells vs control
Source text: After ethical committee approval, all patients in this study gave written consent for sample collection and molecular analysis prior to inclusion. Patients were carefully selected by physicians from the Department of Cardiology, Toulouse University Hospital, prior to coronary by-pass surgery. Bioinformatics. Microarray expression data from human heart samples were downloaded from the GEO repository (GSE1145). This series consisted of 107 myocardial samples collected from patients undergoing cardiac transplantation whose failure arises from different etiologies (e.g. idiopathic dilated cardiomyopathy, ischemic cardiomyopathy, valvular cardiomyopathy, and hypertrophic cardiomyopathy) and from “normal” organ donors whose hearts cannot be used for transplants. Arrays were intensity normalized and hierarchical clustering (average group linkage, Pearson correlation, threshold r=0.8) was applied to identify groups of co-expressed genes. […] All ApoO sequences within the expression vectors were verified by DNA double strand sequencing using ABI PRISM®BigDye™ Terminator version 3.1 Ready reaction cycle sequencing kit (Life Technologies SAS, Villebon sur Yvette) and loaded on an ABI 3130XL DNA sequencing instrument (Life Technologies SAS, Villebon sur Yvette). […]

[3] = system: H9c2 cardiac myoblasts; experiment: Lipid profiling (FAME, diglycerides, triglycerides, BODIPY-palmitate) in cardiac myoblasts; assay type: cell-based
Source text: After ethical committee approval, all patients in this study gave written consent for sample collection and molecular analysis prior to inclusion. Patients were carefully selected by physicians from the Department of Cardiology, Toulouse University Hospital, prior to coronary by-pass surgery. Bioinformatics. Microarray expression data from human heart samples were downloaded from the GEO repository (GSE1145). This series consisted of 107 myocardial samples collected from patients undergoing cardiac transplantation whose failure arises from different etiologies (e.g. idiopathic dilated cardiomyopathy, ischemic cardiomyopathy, valvular cardiomyopathy, and hypertrophic cardiomyopathy) and from “normal” organ donors whose hearts cannot be used for transplants. Arrays were intensity normalized and hierarchical clustering (average group linkage, Pearson correlation, threshold r=0.8) was applied to identify groups of co-expressed genes. ApoO expression levels were plotted for the 107 human hearts tested and used to define relevant molecular pathways using both Toppgene and Ingenuity Pathway Analysis (Ingenuity systems, Redwood City, Calif., USA). ApoO subcellular localization was predicted using Mitopred, mitoprot and YLoc. Animals: All animal Studies followed the INSERM Institute Animal Facility guidelines and were approved by the animal care committees of the INSERM I2MC UMR 1048. All animal procedures were performed according to the guidelines of the French Ministry of Agriculture. Animals were housed at the Toulouse I2MC animal facility in a room lit 12 h per day (6 AM-6 PM) at an ambient temperature of 22+/−1° C. […] All ApoO sequences within the expression vectors were verified by DNA double strand sequencing using ABI PRISM®BigDye™ Terminator version 3.1 Ready reaction cycle sequencing kit (Life Technologies SAS, Villebon sur Yvette) and loaded on an ABI 3130XL DNA sequencing instrument (Life Technologies SAS, Villebon sur Yvette). […]

B1: ApoO: 198-amino acid apolipoprotein, SEQ ID NO: 1; tested by overexpression from expression vectors or transgene (protein, listed as Homo sapiens)
chain: MFKVIQRSVGPASLSLLTFKVYAAPKKDSPPKNSVKVDELSLYSVPEGQSKYVEEARSQLEESISQLRHYCEPYTTWCQETYSQTKPKMQSLVQWGLDSYDYLQNAPPGFFPRLGVIGFAGLIGLLLARGSKIKKLVYPPGFMGLAASLYYPQQAIVFAQVSGERLYDWGLRGYIVIEDLWKENFQKPGNVKNSPGTK
For B1, the “Caspase-3 activity in liver” value ([1]; 48 hours after transfection (FIG. 9e)) was “confirmed”, the “Bax expression in liver” value ([1]; 48 hours after transfection (FIG. 9d)) was “confirmed” and the “diglyceride levels in liver” value ([1]; ApoO transfected liver vs control vector (FIG. 8c)) was “increased”. For the same molecule, the “intracellular triglycerides in liver” value ([1]; ApoO transfected liver vs control vector (FIG. 8d)) was “did not significantly modify”, the “oxygen consumption of isolated liver mitochondria” value ([1]; in vivo transfected mouse liver) was “significant increase” and the “cytochrome C oxidase activity” value [2] was “increase”. For the same molecule, the “increase of total intracellular fatty acids” value ([3]; ApoO expressing cells vs control (FIG. 6E)) was 120% and the “accumulation of green fluorescent BODIPY-palmitate” value ([3]; ApoO expressing cells, 2 min incubation (FIG. 6D)) was “rapid accumulation”.
